Test results published in the supplement of paper PMC10567573.
± gives the standard deviation.

Assay: protein stability index of a GFP-peptide fusion (GPS, HEK-293T) (PSI 1-6); higher = more stable
[1] = treatment: DMSO, c terminus: a fixed tail appended
[2] = treatment: MLN4924 1 uM, 8 h, c terminus: a fixed tail appended
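Further: 24-mer peptide tiles fused after GFP, lentivirally expressed, FACS-sorted into six equal bins by GFP/DsRed ratio, decoded by Illumina sequencing, PSI is the read-weighted mean bin number.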

| Sequence | protein stability index [1] | protein stability index [2] | protein stability index (treatment: DMSO, c terminus: native) | protein stability index (treatment: MLN4924 1 uM, 8 h, c terminus: native) |
| --- | --- | --- | --- | --- |
| MECQPESSISHRFHKDCASRVNNA [EHMT1] | 4.28 ± 0.38 | 4.15 ± 0.39 |  |  |
| LNQIVTEPDANFPQFLHEGLSKPV [FAM104B] | 3.86 ± 0.039 | 3.7 ± 0.42 |  |  |
| LVAEVPKEHWTPEGHSIVGFAMYY [SAT1] | 2.81 ± 0.58 | 2.57 ± 0.39 |  |  |
| GTTEAATQDGKEQPELPCAMAMGT [PXN] | 5.48 ± 0.13 | 5.45 ± 0.22 |  |  |
| CKLTCQAQALGYYYVLEPRVVDGT [ADAMTS4] | 2.86 ± 2 | 2.77 ± 1.1 |  |  |
| QTYFRQNRDEVLDNLLAFVCDIRP [ATP6V1G1] | 2.64 ± 0.44 | 2.27 ± 0.23 |  |  |
| MLPGVLAGVSAEESWAGPQPLETL [SCNN1D] | 3.38 ± 0.34 | 3.53 ± 0.37 |  |  |
| IMVGFILYCSTPTRTAEPAESSVP [SLC35F2] | 3.15 ± 0.68 | 2.62 ± 1 |  |  |
| KIPGTGALASAAAAVSGSKAKAE [RTN2] |  |  | 5.34 ± 0.14 | 5.32 ± 0.14 |
| QQLKEFDGKSLVSVTKEGLELPED [HSP90AB1] | 5.29 ± 0.42 | 5.3 ± 0.44 |  |  |
| DNIVNCNEFLCTLQKKLDNLQCLY [ZNF277] | 2.36 ± 0.39 | 2.07 ± 0.43 |  |  |
| EGPALVEIDRSVENTLLNSQMVST [MIA2] | 4.54 ± 0.26 | 4.63 ± 0.22 |  |  |
| VCEHLNLLEKDYFGLTYRDAENQK [EPB41L3] | 4.91 ± 0.31 | 4.69 ± 0.23 |  |  |
| EVEEVENVQTEFPGEDENPEKASE [TRIM55] | 5.57 ± 0.39 | 5.47 ± 0.52 |  |  |
| EYTCDVEKRSRGQVLFDKVCEHLN [EPB41L3] | 2.16 ± 0.32 | 2.05 ± 0.61 |  |  |
| SVYVKLAGEREDLWAGSKGKEFGY [MIA2] | 2.52 ± 0.23 | 2.85 ± 0.15 |  |  |
| LRNITNSQAPDGRRKSEAGSGAAS [CDC25B] | 4.89 ± 0.24 | 5.1 ± 0.16 |  |  |
| QSKTASDKSPSTVRDQGPSIPLTP [FBF1] | 5.07 ± 0.21 | 5.15 ± 0.099 |  |  |
| QCKDALEIYKRFLTRMTRVSEFLK [SNAP91] | 2.77 ± 0.9 | 2.51 ± 0.24 |  |  |
| ACGVILYILLVGYPPFWDEDQHRL [CAMK2D] | 2.6 ± 0.9 | 2.63 ± 0.51 |  |  |
| EECKDRERPMYGRDSAYQSITHYR [EMD] | 4.18 ± 0.43 | 4.13 ± 0.14 |  |  |
| YIMAFDIKSEDMLKILKPSIPLER [FBXO33] | 2.34 ± 0.44 | 2.67 ± 0.4 |  |  |

| Sequence | protein stability index [1] | protein stability index [2] | protein stability index (treatment: DMSO, c terminus: native) | protein stability index (treatment: MLN4924 1 uM, 8 h, c terminus: native) |
| --- | --- | --- | --- | --- |
| MYEMLIGYPPFCSETPQETYRKVM [STK38L] | 2.2 ± 0.33 | 2.1 ± 0.3 |  |  |
| CISKNEWIQFNHPYTEKPRLWHTA [KLHDC2] | 2.43 ± 0.48 | 2.36 ± 0.3 |  |  |
| SLVRDTIARVHGTFGAAACSIGFA [POP5] | 2.31 ± 0.38 | 2.48 ± 0.22 |  |  |
| PLDSKENLENPMRRIHSLPQKLLG [CDC25A] | 3.29 ± 0.32 | 3.79 ± 0.16 |  |  |
| NNQITCRNGQWSEPPKCLDPCVIS [CFHR2] | 3.34 ± 0.2 | 3.32 ± 0.25 |  |  |
| DQEGLQRITGLSPGRSALIVAVLC [SPNS1] | 2.31 ± 0.46 | 2.27 ± 0.35 |  |  |
| YSLLPQSTAPGLFLVSTHTGEVRT [PCDHGC5] | 3.07 ± 0.14 | 3.07 ± 0.29 |  |  |
| FTGNFFYNYMMGIEFNPRIGKWFD [DHCR7] | 2.59 ± 0.57 | 2.21 ± 0.43 |  |  |
| RPLARPIKRGDILPPEKGREVAKE [RHOBTB1] | 5.17 ± 0.088 | 4.97 ± 0.12 |  |  |
| EGHSIVGFAMYYFTYDPWIGKLLY [SAT1] | 3.07 ± 0.16 | 3.02 ± 0.99 |  |  |
| SSFNFFVFFFIFFVQDVLFVLQAI [SCAMP3] | 3.17 ± 0.26 | 3.18 ± 0.28 |  |  |
| CVSIPDVVGWFVLFYKPGIVLLLA [GULP1] | 2.63 ± 0.55 | 3.09 ± 0.066 |  |  |
| LLLLYFMQVIAIVLYLMMPIVNIS [PHTF1] | 3.15 ± 0.42 | 3.06 ± 0.52 |  |  |
| PLTRLGQLKACTNFDDILNVCDDY [KCNG1] | 3.18 ± 0.29 | 3.34 ± 0.23 |  |  |
| FIEERRQGLEQFINKIAGHPLAQN [SNX12] | 2.73 ± 0.17 | 2.94 ± 0.47 |  |  |
| NGISPIIIDNTNLHAWEMKPYAVM [N4BP2L1] | 2.46 ± 0.37 | 2.01 ± 0.25 |  |  |
| QQLEEELLRAKIEVEKLKAIRLRH [RAD54B] | 5.32 ± 0.25 | 5.43 ± 0.27 |  |  |
| GHLEIVKYLVEHKADLEVSNRHGH [FEM1C] | 2.7 ± 0.45 | 2.94 ± 0.26 |  |  |
| WQYLSGGKVKLQQNPGKFDELDMS [TBC1D10A] | 3.16 ± 0.32 | 3.35 ± 0.26 |  |  |
| HQAQLISKIPHILKEMYDADLLEE [EIF5] | 2.94 ± 0.24 | 3.27 ± 0.59 |  |  |
| RLFTVNDVKVGGSKYGIINLQSLK [DCAF4] | 2.14 ± 0.14 | 2.27 ± 0.37 |  |  |
| VGSVALTALVTVSSEEFEDKWFRK [C8orf76] | 2.26 ± 0.19 | 2.35 ± 0.21 |  |  |

| Sequence | protein stability index [1] | protein stability index [2] | protein stability index (treatment: DMSO, c terminus: native) | protein stability index (treatment: MLN4924 1 uM, 8 h, c terminus: native) |
| --- | --- | --- | --- | --- |
| EIAQYLLEKGADVNRKSVKGNTAL [FEM1C] | 2.58 ± 0.35 | 2.64 ± 0.3 |  |  |
| LPPEKGREVAKELGIPYYETSVVA [RHOBTB2] | 3.55 ± 0.24 | 3.55 ± 0.18 |  |  |
| GCFLLILGQIVLLPAEARERSRGR [MATN2] | 1.97 ± 0.083 | 2.31 ± 0.48 |  |  |
| LLTFQQITTVSKAKGASLFTCDLQ [VPS39] | 2.14 ± 0.2 | 2.07 ± 0.27 |  |  |
| PGGAPRVASRNLFPKDTLMNLHVY [CLPTM1] | 2.33 ± 0.24 | 2.29 ± 0.058 |  |  |
| CQRSRYRDSLTQPDEEPMHYGNIM [RSPH3] | 3.37 ± 0.39 | 3.45 ± 0.3 |  |  |
| SSSKWQRRDYLLLVMEGTDDGRLL [APMAP] | 2.88 ± 0.43 | 2.32 ± 0.39 |  |  |
| LPYPKDVYSVSVDQKERCIIVRTT [DPCD] | 2.21 ± 0.22 | 2.18 ± 0.22 |  |  |
| DSYCDALTRPEPVHEFCAGRECQP [ADAMTSL2] | 4.86 ± 0.1 | 4.57 ± 0.29 |  |  |
| ARGAGPPEPLRICPLHISVKEELD [TRIM35] | 4.59 ± 0.19 | 4.86 ± 0.4 |  |  |
| KAVLENALRNFACLTTGDVIAINY [UFD1] | 2.94 ± 1.7 | 2.3 ± 1 |  |  |
| RRRPRQKEAGLSQSHDDLSNATAT [C2CD2L] | 5.23 ± 0.19 | 5.26 ± 0.24 |  |  |
| IRDQMQQQLNDYEQLLDVKLALDM [LMNB1] | 3.4 ± 0.25 | 3.48 ± 0.36 |  |  |
| FSLLEELKEGMLMKIKQDRASRTY [FSD1] | 2.63 ± 0.42 | 2.66 ± 0.14 |  |  |
| YWPLEKDSRIRFGFLTVTNLGVEN [PTPN9] | 2.47 ± 0.36 | 2.43 ± 0.4 |  |  |
| LSEDYNKMTPVKNYQAHQSRVTMI [WDFY2] | 2.71 ± 0.12 | 2.83 ± 0.13 |  |  |
| VIEEAKTAFLLNIQLFEELQELLT [HMOX1] | 2.08 ± 0.32 | 2.38 ± 0.2 |  |  |
| EKVNEGKYRSYEEFKADAQLLLHN [ZMYND11] | 4.1 ± 0.13 | 3.79 ± 0.28 |  |  |
| RMLIHKTEDVNTLDSEKRTPLHVA [ANKRD44] | 4.06 ± 0.22 | 4.15 ± 0.39 |  |  |
| QQGEYSEAIPILRAALKLEPSNKT [FKBP8] | 4.12 ± 0.19 | 4.14 ± 0.11 |  |  |
| SSIPRRDDFFRHESGEHFRSLLGY [RAD54B] | 2.65 ± 0.21 | 2.57 ± 0.33 |  |  |
| LRPPHTSRGTSQTPNASSPGNPTA [LPCAT4] | 4.76 ± 0.17 | 4.85 ± 0.21 |  |  |

| Sequence | protein stability index [1] | protein stability index [2] | protein stability index (treatment: DMSO, c terminus: native) | protein stability index (treatment: MLN4924 1 uM, 8 h, c terminus: native) |
| --- | --- | --- | --- | --- |
| QLDGLGFLYVTGHIKEILITAGGE [ACSBG2] | 2.66 ± 0.54 | 2.44 ± 0.64 |  |  |
| SVGSYLDTLADDVPGHQTPSDLDQ [LURAP1L] | 5.28 ± 0.23 | 5.34 ± 0.24 |  |  |
| MGHIKPDLIDVDLIRGSTFAKAKP [PHTF1] | 3.56 ± 0.24 | 3.67 ± 0.35 |  |  |
| GLQILGHTLRASMRELGLLIFFLF [KCNA4] | 2.95 ± 0.6 | 2.96 ± 0.25 |  |  |
| FWRDWEDYAHGFGNISGEFWLGNE [TNXB] | 2.78 ± 0.9 | 2.46 ± 0.51 |  |  |
| VSVFIGVLIDLWKITKVMDVRLDR [CLPTM1] | 3.19 ± 0.1 | 2.97 ± 0.35 |  |  |
| QHKCDECGKSFTQSSGLIRHQRIH [ZSCAN9] | 5.26 ± 0.19 | 5.28 ± 0.12 |  |  |
| IEILPNVCYTACATLKGPDSHYGT [BTBD1] | 2.26 ± 0.19 | 2.31 ± 0.2 |  |  |
| EVDFFQRYFIADLPHLQDSFVDKL [INTS4] | 2.23 ± 0.43 | 2.65 ± 0.25 |  |  |
| MKMEEAVGKVEELIESEAPPKASE [C18orf25] | 5.59 ± 0.15 | 5.48 ± 0.57 |  |  |
| VVLTFITPMLNPLIYTLKNAEMKS [OR4A15] | 3.22 ± 0.073 | 2.99 ± 0.63 |  |  |
| DAGGWVLIDRSGRHFGTILNYLRD [KCTD13] | 2.33 ± 0.25 | 2.08 ± 0.42 |  |  |
| EDAVASADFSSMLSEEEKEELKAE [TPD52L1] | 5.59 ± 0.3 | 5.54 ± 0.63 |  |  |
| TSTGFDRHTSPVFSPANPESSMED [BCL2L13] | 5.39 ± 0.28 | 5.16 ± 0.072 |  |  |
| CMFCLYSFMPLVIKVTSATSVNLG [SLC35F2] | 2.91 ± 0.72 | 2.73 ± 0.41 |  |  |
| TTFQDVYFVSESFEDAKEKMREFT [TPH1] | 3.61 ± 0.2 | 3.58 ± 0.29 |  |  |
| HAPTIHFNYRYFEVEEADGNKQWW [CPOX] | 2.66 ± 0.38 | 2.7 ± 0.29 |  |  |
| LKGARLTVEQGCQILDSLSYMRNE [FBXO39] | 2.68 ± 0.35 | 2.85 ± 0.38 |  |  |
| RITITESNMKSRYTTEFHELEKIG [WEE1] | 3.03 ± 0.37 | 3.59 ± 0.55 |  |  |
| LLKRMESLKLKSSHHSKHKAPSKL [DLC1] | 3.03 ± 0.36 | 3.1 ± 0.51 |  |  |
| DMWSLGCILVEMHTGEPLFSGSNE [DYRK1B] | 1.97 ± 0.33 | 2.15 ± 0.23 |  |  |
| GDIQELYDTTLALGHAAAFSDDCD [GLT8D2] | 5.24 ± 0.12 | 5.23 ± 0.14 |  |  |
